Experiment [1] addresses bovine serum albumin (bovine) (UniProt P02769). Nature of the experiment: ELISA, BSA coated at 5 µg/ml, antibody at 10 µg/ml. On the technique in general: An ELISA detects its analyte on a solid surface through an enzyme-linked reagent.
The target of experiment [2] is native GA733-2 antigen (human) (UniProt P16422). Nature of the experiment: ELISA, antigen coated at 5 µg/ml, antibody at 10 µg/ml.
Experiment [3] has as its target secreted recombinant GA733-2E antigen (human) (UniProt P16422). The description is as above.

Our source for the Maximal optical density (at 405 nm) values is patent US6645498.

UniProt P02769, sequence (P02769 25-607 limits assumed): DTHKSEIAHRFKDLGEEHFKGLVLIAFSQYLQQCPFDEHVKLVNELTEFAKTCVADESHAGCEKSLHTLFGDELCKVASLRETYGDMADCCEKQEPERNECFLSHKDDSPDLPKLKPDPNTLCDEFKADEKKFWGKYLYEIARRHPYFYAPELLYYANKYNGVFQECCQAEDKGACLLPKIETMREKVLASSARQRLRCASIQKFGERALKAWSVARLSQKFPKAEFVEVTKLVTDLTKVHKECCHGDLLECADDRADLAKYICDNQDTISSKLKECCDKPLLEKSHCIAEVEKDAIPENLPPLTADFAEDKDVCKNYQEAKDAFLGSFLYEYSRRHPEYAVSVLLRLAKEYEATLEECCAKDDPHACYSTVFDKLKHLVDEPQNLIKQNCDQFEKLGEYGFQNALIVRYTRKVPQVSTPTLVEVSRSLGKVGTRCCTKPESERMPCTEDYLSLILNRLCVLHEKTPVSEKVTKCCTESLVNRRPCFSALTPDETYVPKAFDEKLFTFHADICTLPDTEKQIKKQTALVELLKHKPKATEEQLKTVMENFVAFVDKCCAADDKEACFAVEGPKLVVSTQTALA

For Normal mouse IgG (antibody), the Maximal optical density (at 405 nm) in experiment [1], in experiment [2] and in experiment [3] was 0 OD 405 nm in each case.

Regarding murine mAb GA733 (antibody), the Maximal optical density (at 405 nm) is 0.02 OD 405 nm in experiment [1], 0.86 OD 405 nm in experiment [2] and 1.3 OD 405 nm in experiment [3].
